# According to patent publication US20160244509A1:
# B1: AM16 (antibody, V domains shown)
# VH: EVQLVETGGGLAQPGGSLRLSCAASGFTFSSYNMNWVRQAPGKGLEWVSHISAGSSYIYYSDSVKGRFTVSRDNVRNSVYLQMNSLRAADTAVYYCAREDYGPGNYYSPNWFDPWGQGTLVTVSS
# VL: QSVVTQPPSVSGAPGQRVTISCTGSSSNIGAGYDVHWYQQLPGTAPKLLIYGNTNRPSGVSDRFSGSKSGTSASLAITGLQAEDEADYYCHSYDRSLSGSVFGGGTKLTV
# B2: AM23 (antibody, V domains shown)
# VH: EVQLVESGGNVVKPGTSLRLSCAATGFNFHNYGMNWVRQAPGKGLEWVAVVWYDGSKKYYADSVTGRFAISRDNSKNTLYLQMNSLRVEDTAVYYCVRDKVGPTPYFDSWGQGTLVTVSS
# VL: SYVLTQPPSVSLAPGGTAAITCGRNNIGSETVHWYQQKPGQAPVLVVYDDDDRPSGIPERFSGSNSGNTATLTISRVEAGDEADYYCQVWDRSNYHQVFGGGTKLTV
# B3: D25 (B63D10-D25), monoclonal antibody from the B cell line (culture supernatant or purified from it) (antibody, V domains shown)
# VH: QVQLVQSGAEVKKPGSSVMVSCQASGGPLRNYIINWLRQAPGQGPEWMGGIIPVLGTVHYAPKFQGRVTITADESTDTAYIHLISLRSEDTAMYYCATETALVVSTTYLPHYFDNWGQGTLVTVSS
# VL: DIQMTQSPSSLSAAVGDRVTITCQASQDIVNYLNWYQQKPGKAPKLLIYVASNLETGVPSRFSGSGSGTDFSLTISSLQPEDVATYYCQQYDNLPLTFGGGTKVEIKRTV
# B4: recombinant purified D25 (rD25), expressed in 293T cells (antibody, V domains shown)
# VH: B3 VH
# VL: B3 VL
# B5: AM14 (antibody, V domains shown)
# VH: EVQLVESGGGVVQPGRSLRLSCAASGFSFSHYAMHWVRQAPGKGLEWVAVISYDGENTYYADSVKGRFSISRDNSKNTVSLQMNSLRPEDTALYYCARDRIVDDYYYYGMDVWGQGATVTVSS
# VL: DIQMTQSPSSLSASVGDRVTITCQASQDIKKYLNWYHQKPGKVPELLMHDASNLETGVPSRFSGRGSGTDFTLTISSLQPEDIGTYYCQQYDNLPPLTFGGGTKVEIKRTV
# B6: recombinant GENEART codon optimized D25 (rD25 GA) (antibody, V domains shown)
# VH: B3 VH
# VL: DIQMTQSPSSLSAAVGDRVTITCQASQDIVNYLNWYQQKPGKAPKLLIYVASNLETGVPSRFSGSGSGTDFSLTISSLQPEDVATYYCQQYDNLPLTFGGGTKVEIKR
# Molecular target: RSV F protein of RS virus subtype B strains (2007-2 and Z)
# Test: cell-based or functional assay
Binder,"IC50 values (ng/ml), RS virus neutralization, HEp2 cells, subtype B [ng/mL]","IC50 values (ng/ml), RS virus neutralization, Vero cells, subtype B [ng/mL]"
B1,125,126
B2,191,169
B3,14.3,9
B4,1.9,0.3
B5,6.7,1.1

# Molecular target: RSV F protein of RS virus subtype A strains (A2, X and 2006-1)
# Test: cell-based or functional assay
Binder,"IC50 values (ng/ml), RS virus neutralization, HEp2 cells, subtype A [ng/mL]","IC50 values (ng/ml), RS virus neutralization, Vero cells, subtype A [ng/mL]"
B1,286,304
B2,25,19.4
B3,3.3,3.4
B4,2.1,1.6
B5,21.5,15.2

# Molecular target: RSV F protein of RS virus subtype A strains (A2, X and 2006-1)
# Test: cell-based or functional assay
# Remark: another data set of the same source
Binder,"IC50 values (ng/ml), RS virus neutralization, HEp2 cells, subtype A [ng/mL]","IC50 values (ng/ml), RS virus neutralization, Vero cells, subtype A [ng/mL]"
B6,5.3,3.2

# Molecular target: RSV F protein of RS virus subtype B strains (2007-2 and Z)
# Test: cell-based or functional assay
# Remark: another data set of the same source
Binder,"IC50 values (ng/ml), RS virus neutralization, HEp2 cells, subtype B [ng/mL]","IC50 values (ng/ml), RS virus neutralization, Vero cells, subtype B [ng/mL]"
B6,1.3,1.2
